We go through six molecules from US20100249038A1, “ANTAGONISTS OF THE RECEPTOR FOR ADVANCED GLYCATION END-PRODUCTS (RAGE)” (Board of Regents, University of Texas System, priority 2007, published 2010).

Non-standard residues stand in square brackets, D forms with d.

The target of assay [1] is T1, RAGE (sRAGE, extracellular domain) (Homo sapiens, UniProt Q15109).
T1 construct: the extracellular domain of RAGE peptide (sRAGE) was coated onto the ELISA plate
Put plainly: ELISA of amphoterin (HMGB1) binding to coated sRAGE. To be noted: amphoterin 0-100 ng; FIG. 9; p<0.05 versus HMGB1 alone. From the text: S100P peptide antagonists having the sequence Ac-ELKVLMEKEL-NH2 were made with standard L isomers of amino acids. This peptide antagonist comprises the amino acid sequence referred to as SEQ ID NO: 1 (ELKVLMEKEL), and in this instance the termini were blocked to prevent and/or reduce degradation. The inverse sequence, Ac-LEKEMLVKLE-NH2 was produced using D isomers of amino acids. This peptide antagonist comprises the amino acid sequence referred to as SEQ ID NO: 4 (LEKEMLVKLE), and in this instance the termini were blocked to prevent and/or reduce degradation. D isomers of amino acids, which are not naturally occurring, are thought to provide prolonged half-life in vivo. […] For this study, the extracellular domain of RAGE peptide (sRAGE) was coated onto the ELISA plate for 1 hour and non-specific binding sites were blocked with 1% BSA for 15 minutes. Amphoterin (0-100 ng) was added and incubated for 1 hour to allow its binding to its receptor and unbound molecules were removed by washing. Primary antibody against amphoterin and secondary antibody labeled with HRP and subsequently substrate for HRP was used to detect bound amphoterin with its receptor sRAGE. […] A control peptide of the same size had no effect. *=p<0.05 versus HMGB1 alone.
Inhibition of the binding of amphoterin to RAGE by antagonist peptides was tested using an in vitro ELISA based binding assay. […]

Assay [2] deals with T1, RAGE (sRAGE, extracellular domain). Kind of assay: ELISA of S100P binding to coated sRAGE. To be noted: FIG. 10.
The target is the same in assay [3]. Kind of assay: ELISA of S100A4 binding to coated sRAGE. Conditions: FIG. 10.
In assay [4] the test system is S100P induced NFκB activity in pancreatic cancer MPanc-96 cells. Put plainly: S100P induced NFκB-Luc reporter activity in MPanc-96 cells. Format: cell-based. Conditions: pre-treatment with peptide, FIG. 11. From the text: MPanc-96 pancreatic cancer cells were stably transfected with a reporter plasmid, NFκB-Luc reporter, that provides a quantifiable photon output based on NFκB transcriptional activity. Extracellular addition of S100P to the cells induced the NFκB activity, which has previously been proven to be mediated through interaction with RAGE. Pre-treatment of the cells with S100P peptide antagonists (L-peptide and D-peptide), block S100P binding with its receptor RAGE, thus blocking S100P induced NFκB activity. Results of this assay are depicted in FIG. 11.

Assay [5] concerns NFκB activity in subcutaneous MPanc-96 tumors. Kind of assay: NFκB-Luc activity in subcutaneous MPanc-96 tumors after intratumoral injection. The format is in vivo, nude mice. To be noted: 10 mg/kg b.wt intratumorally, measured after 4 hours; FIG. 12. The protocol:
S100P peptide antagonists (L-peptide and D-peptide) block NFκB activity in vivo in subcutaneous tumors. MPanc-96 pancreatic cancer cells stably transfected with the NFκB-Luc reporter were injected into nude mice subcutaneously (1×10^6) and in vivo NFκB activity indicated by luciferase was measured using an IVIS-100 bioluminescence system. S100P peptide antagonists (L-peptide and D-peptide) (10 mg/kg·b·wt) were injected intratumorally and NFκB activity was measured after 4 hours. […] Thus, delivery of peptide antagonists by direct injection in subcutaneous tumors inhibits NFκB as an indirect read-out of RAGE.

The subject of assay [6] is NFκB activity in orthotopic MPanc-96 tumor. Kind of assay: NFκB-Luc activity in orthotopic MPanc-96 tumors after intraperitoneal injection. Format: in vivo. Conditions: 10 mg/kg b.wt intraperitoneally, measured after 4 hrs; p<0.05; FIG. 13. The protocol: MPanc-96 pancreatic cancer cells stably transfected with the NFκB-Luc reporter were injected orthotopically into the pancreas (1×10^6), and NFκB activity indicated by luciferase activity was measured after two weeks. S100P peptide antagonists (L-peptide and D-peptide) (10 mg/kg·b·wt) were injected intraperitoneally and NFκB activity in the orthotopic tumor was measured after 4 hrs.

Assay [7] deals with NFκB activity stimulated by S100P in Panc-1 cells. Kind of assay: NFκB luciferase reporter activity stimulated by S100P in Panc-1 cells. The format is cell-based. Conditions: S100P 100 nM, peptide 1 μg/ml, 4 hours, FIG. 7B. The protocol: (§1) The effect of these novel peptide antagonists was evaluated on NFκB activity stimulated by S100P in Panc-1 cells. Panc-1 cells stably expressing the NFκB luciferase reporter gene were treated with or without S100P (100 nM) and either peptides of SEQ ID NOs: 1, 2 or 3 (1 μg/ml) for 4 hours. NFκB activity was estimated using luciferase quantitation. Numbers represent means±SE of triplicate determinations. * vs S100P alone (p<0.05); # vs control (p<0.05). Furthermore, administration of peptide of SEQ ID NO: 1 but not SEQ ID NO: 3 inhibited basal NFκB activity in S100P expressing BxPC3 cell tumors when administered in vivo as shown in FIG. 8. BxPC3 cells stably expressing an NFκB luciferase reporter were transplanted to scid mice and tumors were allowed to form. Animals were then injected i.p. with either peptide of SEQ ID NO: 1 (FIG. 8A) or SEQ ID NO: 3 (FIG. 8B). Imaging of luciferase activity was performed before and 24 h after peptide delivery. […] Numbers represent means±SE of triplicate determinations. *=p<0.05 vs time 0.

Assay [8] deals with NFκB activity in S100P expressing BxPC3 cell tumors. Put plainly: Basal NFκB luciferase activity in BxPC3 cell tumors in vivo after i.p. peptide. To be noted: BxPC3 tumors in scid mice, 24 h after peptide delivery vs time 0, FIG. 8. The protocol: as §1
For assay [9], the target named is T2, RAGE (Homo sapiens, UniProt Q15109). Kind of assay: ELISA-type assay of purified S100P binding to coated purified RAGE. On the set-up: Purified RAGE was coated into culture wells. Conditions: peptides 50 μM; FIG. 7A; preliminary studies. The protocol: The binding of purified S100P to RAGE was evaluated using an ELISA technique. Purified RAGE was coated into culture wells, S100P was allowed to bind in the presence and absence of the peptides (50 μM), the dishes were extensively washed, and bound S100P was detected with a specific antibody coupled to HRP.
Target sequence in this assay (Q15109 23-342): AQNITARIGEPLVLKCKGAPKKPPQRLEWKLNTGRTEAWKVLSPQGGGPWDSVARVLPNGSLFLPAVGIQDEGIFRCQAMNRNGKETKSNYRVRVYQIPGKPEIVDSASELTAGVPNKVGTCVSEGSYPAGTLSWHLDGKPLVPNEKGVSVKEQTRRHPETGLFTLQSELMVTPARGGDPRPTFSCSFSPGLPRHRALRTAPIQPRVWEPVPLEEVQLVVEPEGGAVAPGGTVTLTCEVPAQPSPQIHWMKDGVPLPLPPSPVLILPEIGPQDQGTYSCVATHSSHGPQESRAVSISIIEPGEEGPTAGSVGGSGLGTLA

The subject of assay [10] is human umbilical vein endothelial cells (HUVECs). Kind of assay: HUVEC cell number after S100P treatment (MTS). The format is cell-based. To be noted: S100P treatment for 48 hrs vs uninduced bacterial protein; FIG. 4A. The method, then:
(§2) S100P is secreted by pancreatic cancer cells and acts in an autocrine manner to stimulate their growth, survival, and invasiveness. Thus, S100P could also interact with receptors on cells within the microenvironment. The effects of S100P on human umbilical vein endothelial cells (HUVECs) in vitro were examined. […] HUVEC cells were cultured in the presence of either S100P or uninduced bacterial protein for 48 hours and the number of cells was estimated using MTS. […] Tumors formed with BxPC3 cells were harvested and frozen sections were stained for CD31 staining with the help of the Cancer Biology Histology core. Microvessels bearing CD31 are stained brown. […] HUVEC cells were plated on Matrigel and followed for 4 hours. After this time, control cells mostly remained individually isolated while a few cells began to migrate and align themselves and occasional sprouting was observed. At 4 hrs, cells treated with S100P had mostly migrated aligned themselves, sprouted, formed closed polygons and a complex mesh like structure had developed.

For assay [11] the test system is unchanged. Kind of assay: HUVEC migration and alignment on Matrigel. Format: cell-based. Conditions: 4 hours, FIG. 4C. The protocol: as §2
Assay [12] has as its target T2, RAGE. Kind of assay: Co-immunoprecipitation of RAGE with S100P from pancreatic cancer cell lysates. Format: binding. Also noted: endogenous in cells; host or cells: MiaPaca2, BxPC3 (and Panc-1, printed 'Panel') cell lysates. To be noted: S100P 100 ng, 16 hours at 4° C., FIG. 5. The protocol: As a direct indication of this interaction, lysates from Panel, and MiaPaca2 cells were incubated with S100P and S100P was then immunoprecipitated. RAGE was not present in the samples run without addition of S100P or S100P antibody (lanes A-C), but RAGE was present when both these reagents were included (lanes D-F). […] In these experiments MiaPaca2 (A-D) and BxPC3-1 (E) cell lysates were incubated in the presence of S100P (100 ng) for 16 hours at 4° C. before immunoprecipitation with anti-S100P monoclonal antibodies (IP-S100P) (+) or control IgG (−) and RAGE was identified in the immunoprecipitates by western blotting with an anti-RAGE antibody (IB-RAGE).
Target sequence in this assay (Q15109 23-404): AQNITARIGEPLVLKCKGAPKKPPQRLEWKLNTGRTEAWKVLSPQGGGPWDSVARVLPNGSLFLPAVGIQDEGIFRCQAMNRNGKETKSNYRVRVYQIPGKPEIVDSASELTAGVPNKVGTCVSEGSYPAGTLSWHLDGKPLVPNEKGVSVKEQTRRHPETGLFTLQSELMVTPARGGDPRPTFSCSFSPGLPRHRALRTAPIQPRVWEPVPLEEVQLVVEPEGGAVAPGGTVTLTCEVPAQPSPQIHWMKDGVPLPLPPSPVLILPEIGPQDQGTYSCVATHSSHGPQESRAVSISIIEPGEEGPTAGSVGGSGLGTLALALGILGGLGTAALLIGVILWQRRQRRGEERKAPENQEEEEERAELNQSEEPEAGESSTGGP

T1 sequence (Q15109 23-342 limits assumed): as the sequence (Q15109 23-342) above

For “Ac-ELKVLMEKEL-NH2 (listed as Homo sapiens) [L-peptide]”, in assay [1], the “block of amphoterin (HMGB1) binding to RAGE” value is “competed with amphoterin and blocked its ability to bind with RAGE”. For the same molecule, the “block of S100P binding to RAGE” value in assay [2] is reported as “compete for binding of S100P”. The “block of S100A4 binding to RAGE” value in assay [3] is given as “blocked”. Besides, in assay [4], the “block of S100P induced NFκB activity” value was “block S100P induced NFκB activity”. Moreover, the “reduction in NFκB activity in subcutaneous tumors” value in assay [5] was “strong reduction in NFκB activity”. Besides, in assay [6], the “inhibition of cancer cell NFκB activity in orthotopic tumor” value is on record as “significant inhibition of cancer cell NFκB activity”.

For “Ac-LEKEMLVKLE-NH2 (Ac-[dL][dE][dK][dE][dM][dL][dV][dK][dL][dE]-NH2; SMILES CSCC[C@@H](NC(=O)[C@@H](CCC(=O)O)NC(=O)[C@@H](CCCCN)NC(=O)[C@@H](CCC(=O)O)NC(=O)[C@@H](CC(C)C)NC(C)=O)C(=O)N[C@H](CC(C)C)C(=O)N[C@@H](C(=O)N[C@H](CCCCN)C(=O)N[C@H](CC(C)C)C(=O)N[C@H](CCC(=O)O)C(N)=O)C(C)C; listed as Homo sapiens) [D-peptide]”, in assay [1], the “block of amphoterin (HMGB1) binding to RAGE” value is “competed with amphoterin and blocked its ability to bind with RAGE”. Besides, the “block of S100P binding to RAGE” value in assay [2] is reported as “compete for binding of S100P”. Also, the “block of S100A4 binding to RAGE” value in [3] is “blocked”. In addition, in assay [4], the “block of S100P induced NFκB activity” value is reported as “block S100P induced NFκB activity”. Also, the “reduction in NFκB activity in subcutaneous tumors” value in assay [5] is reported as “strong reduction in NFκB activity”. In addition, the “inhibition of cancer cell NFκB activity in orthotopic tumor” value in assay [6] is on record as “significant inhibition of cancer cell NFκB activity”.

Consider “ELKVLMEKEL (listed as Homo sapiens) [SEQ ID NO: 1]”, for which, in [7], the “block of the activation of NFκB by S100P” value is “could also block the activation of NFκB by S100P”. The “inhibition of basal NFκB activity in tumors in vivo” value in assay [8] was “caused a significant reduction in NFκB activity”. In the assay with RAGE [9], the “block of the interaction of S100P with RAGE” value (shortened to “block … with RAGE”) is given as “could block the interaction of S100P with RAGE”.

As for “GKDGDAVDKLLKD (listed as Homo sapiens) [SEQ ID NO: 3, b142 prints …]”, the “block of the activation of NFκB by S100P” value in assay [7] is “could also block the activation of NFκB by S100P”. For the same molecule, the “inhibition of basal NFκB activity in tumors in vivo” value in assay [8] is recorded as “did not”. Moreover, the “block … with RAGE” value with RAGE [9] is recorded as “could block the interaction of S100P with RAGE”.

Turning to “KELPGFLQSGKDKD (listed as Homo sapiens) [SEQ ID NO: 2]”, the “block of the activation of NFκB by S100P” value in [7] is listed as “not”. Besides, in the assay with RAGE [9], the “block … with RAGE” value was “not”.

B1: S100P: S100 family calcium-binding protein, RAGE ligand, added exogenously as purified protein (protein, UniProt P25815 1-95, looked up)
Protein S100-P: MTELETAMGMIIDVFSRYSGSEGSTQTLTKGELKVLMEKELPGFLQSGKDKDAVDKLLKDLDANGDAQVDFSEFIVFVAAITSACHKYFEKAGLK
B1: the HUVEC cell numbers entry in assay [10] is “significant increase in HUVEC cell numbers”. Moreover, the “endothelial cell migration and alignment” value in assay [11] was “increased endothelial cell migration and alignment”. In addition, in the assay with RAGE [12], the “direct interaction with RAGE (RAGE in S100P immunoprecipitates)” value is “able to interact directly with RAGE”.
